From patent US20180319855A1, “GENETICALLY MUTATED AEQUORIN-BASED BIOSENSORS WITH EXTRA SENSITIVITY TO CALCIUM AND IMPROVED BIOLUMINESCENCE INTENSITY” (CENTRE NATIONAL DE LA RECHERCHE SCIENTIFIQUE (CNRS), priority 2015, published 2018)
Numbering of substitutions follows the chain as printed. In names and notes the source's numbering stands. Several values for one entry are separate records, joined by “and”; a condition that tells them apart may be missing. Equal entries are not always repeated.

B1: Redq/QT + AT: aporedquorin mutant Q159T + A179T (SEQ ID NO:24) (protein)
chain: MVSKGEEVIKEFMRFKVRMEGSMNGHEFEIEGEGEGRPYEGTQTAKLKVTKGGPLPFAWDILSPQFMYGSKAYVKHPADIPDYKKLSFPEGFKWERVMNFEDGGLVTVTQDSSLQDGTLIYKVKMRGTNFPPDGPVMQKKTMGWEASTERLYPRDGVLKGEIHQALKLKDGGHYLVEFKTIYMAKKPVQLPGYYYVDTKLDITSHNEDYTIVEQYERSEGRHHLFLGHGTGSTGSGSSGTASSEDNNMAVIKEFMRFKVRMEGSMNGHEFEIEGEGEGRPYEGTQTAKLKVTKGGPLPFAWDILSPQFMYGSKAYVKHPADIPDYKKLSFPEGFKWERVMNFEDGGLVTVTQDSSLQDGTLIYKVKMRGTNFPPDGPVMQKKTMGWEASTERLYPRDGVLKGEIHQALKLKDGGHYLVEFKTIYMAKKPVQLPGYYYVDTKLDITSHNEDYTIVEQYERSEGRHHLFLSGFDNPRWIGRHKHMFNFLDVNHNGKISLDEMVYKASDIVINNLGATPEQAKRHKDAVEAFFGGAGMKYGVETDWPAYIEGWKKLATDELEKYAKNEPTLIRIWGDALFDIVDKDQNGAITLDEWKAYTKAAGIIQSSEDCEETFRVCDIDESGTLDVDEMTRQHLGFWYTMDPTCEKLYGGAVP
modifications: mutant aequorin
B2: A123D: apoaequorin mutant, alanine 123 replaced by aspartic acid (SEQ ID NO:10) (protein)
chain: SKLTSDFDNPRWIGRHKHMFNFLDVNHNGKISLDEMVYKASDIVINNLGATPEQAKRHKDAVEAFFGGAGMKYGVETDWPAYIEGWKKLATDELEKYAKNEPTLIRIWGDALFDIVDKDQNGDITLDEWKAYTKAAGIIQSSEDCEETFRVCDIDESGQLDVDEMTRQHLGFWYTMDPACEKLYGGAVP
modifications: mutant aequorin
B3: A179T: apoaequorin mutant, alanine 179 replaced by threonine (SEQ ID NO:11) (protein)
chain: B2 chain with D123A, A179T
modifications: mutant aequorin
B4: Q159T: apoaequorin mutant, glutamine 159 replaced by threonine (SEQ ID NO:6) (protein)
chain: B2 chain with D123A, Q159T
modifications: mutant aequorin
B5: QD + AT: apoaequorin double mutant Q159D + A179T (SEQ ID NO:17) (protein)
chain: B2 chain with D123A, Q159D, A179T
modifications: mutant aequorin
B6: Q159D: apoaequorin mutant, glutamine 159 replaced by aspartic acid (SEQ ID NO:5) (protein)
chain: B2 chain with D123A, Q159D
modifications: mutant aequorin
B7: Q159E: apoaequorin mutant, glutamine 159 replaced by glutamic acid (SEQ ID NO:8) (protein)
chain: B2 chain with D123A, Q159E
modifications: mutant aequorin
B8: S157D: apoaequorin mutant, serine 157 replaced by aspartic acid (SEQ ID NO:12) (protein)
chain: B2 chain with D123A, S157D
modifications: mutant aequorin
B9: QT + AD: apoaequorin double mutant Q159T + A123D (SEQ ID NO:16) (protein)
chain: B2 chain with Q159T
modifications: mutant aequorin
B10: QT + ND: apoaequorin double mutant Q159T + N121D (SEQ ID NO:14) (protein)
chain: B2 chain with N121D, D123A, Q159T
modifications: mutant aequorin
B11: QT + AT: apoaequorin double mutant Q159T + A179T (SEQ ID NO:18) (protein)
chain: B2 chain with D123A, Q159T, A179T
modifications: mutant aequorin
B12: Q140R: aequorin single mutant Q140R, low calcium affinity (protein)
chain: B2 chain with D123A, Q140R
B13: S157A: aequorin single mutant S157A, low calcium affinity (protein)
chain: B2 chain with D123A, S157A
B14: S157T: aequorin single mutant S157T, medium-low calcium affinity (protein)
chain: B2 chain with D123A, S157T

assay: Thermostability: relative bioluminescence activity after 30 min incubation; format: physicochemical; conditions: 30° C. for 30 min; CLZ-f
Procedure: Thermostability of aequorin and redquorin mutant with increased affinity for calcium were compared to wt-aequorin (FIG. 5). The purified photoprotein samples were reconstituted with CLZ-f (as detailed earlier) and let to calibrate at room temperature (20-24° C.) for 20 min before taken the first measurement of total counts using saturating calcium solution (50 mM Tris-HCl, 100 mM CaCl2, pH 7.5). Samples were then incubated at two different temperatures (30 to 40° C.) for 30 min, and let equilibrate at room temperature for 15 minbefore taken the second measurement of total counts in the sample. The relative bioluminescence activity at each temperature was calculated by the ratio 2nd counts (at target T° C.)/1st counts (at initial T° C.) multiplied by 100.
Table 6 highlights the analysis of thermostability data obtained at two temperatures for aequorin and redquorin mutants, as well as CitA and GA. The values represent the degree of change in luminescence activity compared to wt-aeq, at each temperature. All values are relative to wt-aequorin (at each temperature) and were calculated by dividing the obtained data for each mutant/variant by the data for wt-aeq (as reference). The data were taken from FIG. 5.

First: B1
Second: B2
The “Thermostability, luminescence activity relative to wt-aequorin” value of the first is higher: 0.96 for the first, 0.82 for the second.

Going from B3 to B4, the “Thermostability, luminescence activity relative to wt-aequorin” value falls from 0.96 to 0.92.

First: B5
Second: B6
The “Thermostability, luminescence activity relative to wt-aequorin” value of the first is higher: 1.05 for the first, 0.95 for the second.

First: B7
Second: B8
The “Thermostability, luminescence activity relative to wt-aequorin” value of the first is higher: 0.89 for the first, 0.77 for the second.

same assay, conditions: 40° C. for 30 min; CLZ-f

First: B1
Second: B2
The “Thermostability, luminescence activity relative to wt-aequorin” value of the first is higher: 1.03 for the first, 0.84 for the second.

Going from B3 to B4, the “Thermostability, luminescence activity relative to wt-aequorin” value falls from 1.02 to 0.96.

Going from B5 to B6, the “Thermostability, luminescence activity relative to wt-aequorin” value falls from 1.07 to 1.00.

Going from B7 to B8, the “Thermostability, luminescence activity relative to wt-aequorin” value falls from 0.94 to 0.71.

same assay, conditions: after incubation at 30 and 40° C.

With B2 the “less activity compared to wt-aeq (thermostability)” value was 19%.

For B8, the “less activity compared to wt-aeq (thermostability)” value was “up to 29%”.

assay: Ca2+ sensitivity curves of reconstituted photoproteins (L/Lmax vs free Ca2+); format: biochemical; conditions: CLZ-f; L/Lmax compared to Aeq-wt
Procedure: For in vitro reconstitution, the purified and concentrated samples of apoaequorin and redquorin mutant proteins were buffer-exchanged to 50 mM Tris-HCl (pH 7.5), 150 mM NaCl, 10 mM EGTA, 5 mM ß-mercaptoethanol, supplemented with 5 μM CLZ-f or CLZ-native and incubated overnight at 4° C., in the dark. The next day, samples were passed through molecular weight cut-offs (AmiconUitra MWCO, 10K and 50K, from Millipore), then resuspended in Zero-Ca^2+ buffer (30 mM MOPS, 100 mM KCl and 10 mM EGTA, pH 7.2) for calcium affinity, emission decay kinetics and spectral analysis assays. As for in cellulo reconstitution, HEK cells transiently expressing the proteins of apoaequorin and aporedquorin mutants were washed twice with Hank's Balanced Salt Solution (HBSS) and incubated in the dark, with 4 μM of the desired CLZ diluted in OptiMEM I medium (Gibco), for 2-3h at 37° C. and 5% CO2. Cells were washed once and maintained in HBSS at 37° C. for 20 min before the experiment.
Functional Analysis of Aequorin Mutants and Fusions Ca^2+ Sensitivity Curves.
Purified and reconstituted samples with CLZ-f or CLZ-native already buffered-exchanged to zero-calcium buffer ensured to minimize calcium contamination that could interfere with the measurements. Fifteen microliter aliquot of photoprotein samples (concentration range, 50 to 90 ng/μl) was placed in a home-made luminometer and mixed with 300 μl solution containing the desired concentration of free-Ca^2+. The solutions of EGTA-buffered with varying free-Ca^2+ prepared according to the manufacturer instruction for the kit (Molecular Probes, Invitrogen). Integration of the luminescence emission (per second) was measured for 20 seconds (background) before injecting a solution with known [free-Ca^2+] and lasted until stable or decaying signal (at final-phase) was obtained. At this point, 400 μl of a saturating calcium solution (30 mM MOPS, 100 mM CaCl2, pH 7.2) was rapidly injected (less than 30 ms) and light integration continued until all aequorin had been consumed and light intensity had gone back to background signal. Luminescence intensity (L) at different [Ca^2+] was taken as the response peak value in case of decaying signal or as the stable value in case of stable emission. Lmax, was measured by integrating all remaining luminescence signal from that moment (L value) to the end of the experiment. The EC50 values were extracted from a sigmoidal dose-response fit (variable slope) using GraphPad Prism software.

Going from B2 to B3, the “Relative intensity at pCa 6.5” value falls from 3.6 to 3.0.

First: B9
Second: B10
The “Relative intensity at pCa 6.5” value of the first is higher: 22.8 for the first, 14.4 for the second.

Going from B5 to B11, the “Relative intensity at pCa 6.5” value falls from 58.5 to 29.0.

With B8 the “Relative intensity at pCa 6.5” value was 6.0.

Going from B2 to B3, the “Relative intensity at pCa 7.2” value falls from 1.6 to 1.3.

Going from B4 to B9, the “Relative intensity at pCa 7.2” value rises from 4.8 to 10.0.

First: B10
Second: B5
The “Relative intensity at pCa 7.2” value of the first is lower: 12.2 for the first, 60.8 for the second.

Compared with B11, B8 is lower in “Relative intensity at pCa 7.2” value: 14.0 for the first, 2.2 for the second.

For B4, the “Relative intensity at pCa 6.5” value was 16 and 16.6.
With B6 the “Relative intensity at pCa 6.5” value was 25 and 25.1.

same assay, conditions: CLZ-f; at pCa 6.5; FIG. 2

In the case of B2, the “affinity to calcium group relative to Aeq-wt” value is reported as “medium-high to high”.
With B3 the “affinity to calcium group relative to Aeq-wt” value was “medium-high to high”.
With B4 the “affinity to calcium group relative to Aeq-wt” value was “medium-high to high”.
In the case of B6, the “affinity to calcium group relative to Aeq-wt” value is reported as “medium-high to high and high”.
With B12 the “affinity to calcium group relative to Aeq-wt” value was “low”.
For B13, the “affinity to calcium group relative to Aeq-wt” value was “low”.
With B14 the “affinity to calcium group relative to Aeq-wt” value was “medium-low”.

same assay, conditions: CLZ-f; redquorin series, CitA, GA; read-out: Calcium sensitivity, EC50

With B1 the EC50 was 284 ± 30 nM.

same assay, conditions: CLZ-f; relative to Redq

In the case of B1, the “Relative intensity at pCa 6.5” value is reported as 25.6.

For B1, the “Relative intensity at pCa 7.2” value was 9.0.

same assay, conditions: CLZ-native; redquorin series, CitA, GA; read-out: Calcium sensitivity, EC50

Work on B1 yielded an EC50 of 605 ± 16 nM.

same assay, conditions: CLZ-native; relative to Redq

For B1, the “Relative intensity at pCa 6.5” value was 18.3.

In the case of B1, the “Relative intensity at pCa 7.2” value is reported as 14.1.

same assay, conditions: aequorin proteins reconstituted with CLZ-f; sigmoidal curve fit; mean ± SD, n at least 3; read-out: Calcium sensitivity, EC50

B2 and B3 are within 1.5-fold of each other in EC50: 374 nM for the first, 330 nM for the second.

B4 and B9 are within 1.5-fold of each other in EC50: 249 ± 13 nM for the first, 279 nM for the second.

First: B10
Second: B5
The EC50 of the first is 1.6-fold higher: 337 ± 10 nM for the first, 216 nM for the second.

B6 and B11 are within 1.5-fold of each other in EC50: 330 nM for the first, 281 ± 25 nM for the second.

With B8 the EC50 was 322 nM.
